Source: article PMC6286387, “Physical and thermodynamic characterization of the rice gibberellin receptor/gibberellin/DELLA protein complex” (Scientific Reports, 2018)

What was measured:
[1] = target: T1, SLR1(M28-A112) ΔSPACE(G69-F83) (rice (Oryza sativa), UniProt Q7G7J6 28-112, ΔSPACE(G69-F83)); experiment: ITC; 10 μl aliquants of 400 μM OsGID1/GA3 into 1.4482 ml of 50 μM SLR1 variant, 30 °C, 20 mM sodium phosphate (pH 7.5), 150 mM NaCl, 2.0 mM β-ME, 0.1 mM GA3; conditions: both partners purified
T1 construct: DELLA protein SLR1 of rice (Oryza sativa), residues M28-A112 with G69-F83 deleted; Named without Trx in the ITC experiments; removal of the tag is told in general in the methods; also called SLR(M28-A112)ΔSPACE; source: E. coli, purified (HiTrap Chelating, Superdex 200; thrombin, HiTrap Chelating, Superdex 75); not shown: Trx, N-terminal, cleaved; His6, N-terminal, cleaved
T1 sequence (looked up): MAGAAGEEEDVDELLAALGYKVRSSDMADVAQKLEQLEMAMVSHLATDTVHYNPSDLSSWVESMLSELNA

SLR1(M1-H327) = target: T2, SLR1(M1-H327) (rice (Oryza sativa), UniProt Q7G7J6 1-327); experiment: as above; conditions: both partners purified
T2 construct: DELLA protein SLR1 of rice (Oryza sativa), residues M1-H327; Named without Trx in the ITC experiments; removal of the tag is told in general in the methods; also called SLR(M1-H327); source: E. coli, purified (HiTrap Chelating, Superdex 200; thrombin, HiTrap Chelating, Superdex 75); not shown: Trx, N-terminal, cleaved; His6, N-terminal, cleaved
T2 sequence (looked up): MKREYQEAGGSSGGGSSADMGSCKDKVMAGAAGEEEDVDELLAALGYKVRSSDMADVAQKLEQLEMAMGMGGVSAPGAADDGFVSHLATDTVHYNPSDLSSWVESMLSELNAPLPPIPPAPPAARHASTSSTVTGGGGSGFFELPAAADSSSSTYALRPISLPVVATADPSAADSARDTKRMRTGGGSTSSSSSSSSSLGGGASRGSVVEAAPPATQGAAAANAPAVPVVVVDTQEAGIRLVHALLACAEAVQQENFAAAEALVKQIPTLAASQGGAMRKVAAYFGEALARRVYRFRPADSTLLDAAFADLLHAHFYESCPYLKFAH

SLR1(M28-A112), Trx-free [2] = target: T3, SLR1(M28-A112), Trx-free (rice (Oryza sativa), UniProt Q7G7J6 28-112); experiment: as above; conditions: both partners purified
T3 construct: DELLA protein SLR1 of rice (Oryza sativa), residues M28-A112; 13C/15N-labelled for the NMR spectra; also called SLR(M28-A112); source: E. coli, purified (HiTrap Chelating, Superdex 200; thrombin, HiTrap Chelating, Superdex 75); not shown: Trx, N-terminal, cleaved; His6, N-terminal, cleaved
T3 sequence (looked up): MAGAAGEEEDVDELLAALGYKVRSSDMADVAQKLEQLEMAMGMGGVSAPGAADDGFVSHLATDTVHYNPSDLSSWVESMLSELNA

SLR1(M1-A172) = target: T4, SLR1(M1-A172) (rice (Oryza sativa), UniProt Q7G7J6 1-172); experiment: as above; conditions: both partners purified
T4 construct: DELLA protein SLR1 of rice (Oryza sativa), residues M1-A172; Named without Trx in the ITC experiments; removal of the tag is told in general in the methods; also called SLR(M1-A172); source: E. coli, purified (HiTrap Chelating, Superdex 200; thrombin, HiTrap Chelating, Superdex 75); not shown: Trx, N-terminal, cleaved; His6, N-terminal, cleaved
T4 sequence (looked up): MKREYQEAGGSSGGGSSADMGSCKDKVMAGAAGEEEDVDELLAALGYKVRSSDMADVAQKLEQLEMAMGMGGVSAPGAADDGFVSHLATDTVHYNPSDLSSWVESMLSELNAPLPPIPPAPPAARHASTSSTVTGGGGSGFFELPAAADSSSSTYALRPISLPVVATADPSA

[3] = target: the molecule itself; experiment: SAXS; Trx-free proteins, about 3.0 mg/ml, 20 mM sodium phosphate (pH 7.5), 150 mM NaCl, 2.0 mM β-ME, 0.1 mM GA3, 25 °C; mass from I(0), Guinier and Kratky plots
SLR1(M28-A112), Trx-free [4] = target: T3, SLR1(M28-A112), Trx-free; experiment: as above; conditions: both partners purified
[5] = target: SLR1(M1-E104), Trx-free (rice (Oryza sativa)) (UniProt Q7G7J6); experiment: ITC; 10 μl aliquants of 400 μM OsGID1/GA3 into 1.4482 ml of 50 μM SLR1 variant, 30 °C, 20 mM sodium phosphate (pH 7.5), 150 mM NaCl, 2.0 mM β-ME, 0.1 mM GA3
SLR1(M28-A112), Trx-free [6] = target: T3, SLR1(M28-A112), Trx-free; experiment: as above; conditions: both partners purified; remark: listed apart in the source

B1: OsGID1 (rice gibberellin receptor GID1), Trx-free, used as the OsGID1/GA3 complex (receptor, rice (Oryza sativa), UniProt Q6L545 1-354, looked up)
chain: MAGSDEVNRNECKTVVPLHTWVLISNFKLSYNILRRADGTFERDLGEYLDRRVPANARPLEGVSSFDHIIDQSVGLEVRIYRAAAEGDAEEGAAAVTRPILEFLTDAPAAEPFPVIIFFHGGSFVHSSASSTIYDSLCRRFVKLSKGVVVSVNYRRAPEHRYPCAYDDGWTALKWVMSQPFMRSGGDAQARVFLSGDSSGGNIAHHVAVRAADEGVKVCGNILLNAMFGGTERTESERRLDGKYFVTLQDRDWYWKAYLPEDADRDHPACNPFGPNGRRLGGLPFAKSLIIVSGLDLTCDRQLAYADALREDGHHVKVVQCENATVGFYLLPNTVHYHEVMEEISDFLNANLYY
notes: Gibberellin receptor GID1 of rice (Oryza sativa); theoretical MW of the dimer printed as 79.2 kDa; The printed mass (39.6 kDa a monomer) fits the whole protein; source: recombinant, purified
**Q.** For B1, which dH [1] is on record?
**A.** The dH was -8.3 kcal/mol.

**Q.** What about the “stoichiometry N” value [1] of the same binder?
**A.** The value was 0.5.

**Q.** And the dH (SLR1(M1-H327))?
**A.** The dH was -7.1 kcal/mol.

**Q.** What about the “stoichiometry N” value (SLR1(M1-H327)) of the same binder?
**A.** The value was 1.01.

**Q.** What about the dH (SLR1(M28-A112), Trx-free [2]) of the same binder?
**A.** Its dH is -6.9 kcal/mol.

**Q.** What about the “stoichiometry N” value (SLR1(M28-A112), Trx-free [2]) of the same binder?
**A.** The value was 1.06.

**Q.** What about the dH (SLR1(M1-A172)) of the same binder?
**A.** The dH was -6.8 kcal/mol.

**Q.** And the “stoichiometry N” value (SLR1(M1-A172))?
**A.** The value was 1.06.

**Q.** What about the “stoichiometry N” value [3] of the same binder?
**A.** The value was 2.

**Q.** What about the “stoichiometry N” value (SLR1(M28-A112), Trx-free [4]) of the same binder?
**A.** Its value is 1.

**Q.** And the Ka [5]?
**A.** Its Ka is 11000 M⁻¹.

**Q.** What about the dH [5] of the same binder?
**A.** The dH was -8.4 kcal/mol.

**Q.** What about the stoichiometry N [5] of the same binder?
**A.** The stoichiometry N was 1.

**Q.** And the dH (SLR1(M28-A112), Trx-free [6])?
**A.** The dH was -8.44 kcal/mol.

**Q.** What about the “stoichiometry N” value (SLR1(M28-A112), Trx-free [6]) of the same binder?
**A.** The value was 0.92.
